The record followed here is patent US20050214309A1, “Methods and compositions for modulating transcription factor activity” (published 2005).

This data set addresses T1, ATF1 (Homo sapiens, UniProt P18846 SEQ:1-271).
T1 sequence: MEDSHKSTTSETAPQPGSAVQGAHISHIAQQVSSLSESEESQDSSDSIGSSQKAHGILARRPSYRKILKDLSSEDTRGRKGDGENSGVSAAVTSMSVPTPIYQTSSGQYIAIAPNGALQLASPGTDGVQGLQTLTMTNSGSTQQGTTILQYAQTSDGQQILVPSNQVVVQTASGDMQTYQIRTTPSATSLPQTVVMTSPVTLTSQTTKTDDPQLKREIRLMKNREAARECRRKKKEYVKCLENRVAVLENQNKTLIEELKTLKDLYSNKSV
The data set can be described thus: competition; 100-fold excess unlabeled AP1 did not diminish ATF1/CRE complex. Particulars: tags: E. coli pET-11d, DNA-cellulose purified.

B1: AP1 oligonucleotide (dsDNA)
DNA 1: CGCTTGATGAGTCAGCCGGAA
DNA 2: TTCCGGCTGACTCATCAAGCG
In the case of B1, the binding result was “no binding”.
